These are literature values, as cited in paper PMC11190312.

Data set [1] addresses nucleoprotein (SARS-CoV-2) (UniProt P0DTC9). Particulars: cited from earlier work.
For data set [2], the target named is nucleoprotein (SARS-CoV-1) (UniProt P59595). Particulars: cited from earlier work.

Broadly, the Kd is the constant that tells how readily two partners part at equilibrium. Take MASP-2 (from UniProt O00187): the Kd in data set [1] is 514 nM; in data set [2], 268 nM.
